Where “and” joins values, the source holds several entries; their conditions need not be identical. Equal entries are not always repeated.
Legend:
[1] = molecular target: T1, CD20 (on B cells) (human, UniProt P11836); assay: flow cytometry on PBMC of healthy donors, B cell gate (CD3-CD19+), % of binding, mean of two donors
T1 construct: native on the surface of B cells (CD3-CD19+) in PBMC of healthy donors; the sheet names the cell type only
T1 sequence (single chain, looked up): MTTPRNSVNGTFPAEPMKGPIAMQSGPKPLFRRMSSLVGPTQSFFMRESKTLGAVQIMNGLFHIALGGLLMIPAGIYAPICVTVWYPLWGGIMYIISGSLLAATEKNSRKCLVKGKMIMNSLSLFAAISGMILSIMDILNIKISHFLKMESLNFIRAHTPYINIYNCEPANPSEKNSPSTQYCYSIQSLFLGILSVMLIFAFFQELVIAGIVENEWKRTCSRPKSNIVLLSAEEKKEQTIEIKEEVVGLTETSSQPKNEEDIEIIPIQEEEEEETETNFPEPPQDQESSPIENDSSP

[2] = molecular target: T2, human CCR8 (human, UniProt P51685 1-355); assay: cell-based or functional assay
[3] = molecular target: T2, human CCR8; assay: cell-based or functional assay; remark: listed apart in the source
[4] = molecular target: T2, human CCR8; assay: cell-based or functional assay; remark: listed apart in the source
[5] = molecular target: T2, human CCR8; assay: cell-based or functional assay; remark: listed apart in the source
[6] = molecular target: T2, human CCR8; assay: cell-based or functional assay; remark: listed apart in the source
[7] = molecular target: T2, human CCR8; assay: flow cytometry, HUT78 cells (endogenous CCR8)
Protocol: The same staining protocol was applied on human CCR8 transfected CHO cell line versus wild type CHO cell line, cutaneous T cell lymphoma HUT78 cell line and human activated T cell model.
Briefly, 1·10⁵ cells per well in a 96 well plate were incubated with a dilution of unconjugated anti-CCR8 mAb at 10 μg/mL then diluted at 1/3.33, 4 dilution points (during 30 min at 4° C.). In human activated T cells model, prior to mAb incubation, cells were first incubated with 200 nM of hCCL1 (R&D Systems, Minneapolis, MN, USA) or buffer PBS (Invitrogen by Thermofisher Scientific, Illkirch-Graffenstaden, France) supplemented by 2% Fetal Bovine Serum (Invitrogen by Thermofisher Scientific, Illkirch-Graffenstaden, France) and 2 mM EDTA (Invitrogen by Thermofisher Scientific, Illkirch-Graffenstaden, France) during 1 hour at 4° C. To determine EC50 value, 8 concentrations of anti-CCR8 mAb were tested. Unbound antibodies were washed away with PBS (Invitrogen by Thermofisher Scientific, Illkirch-Graffenstaden, France) supplemented by 2% Fetal Bovine Serum (Invitrogen by Thermofisher Scientific, Illkirch-Graffenstaden, France) and 2 mM EDTA (Invitrogen by Thermofisher Scientific, Illkirch-Graffenstaden, France). Subsequently, cells are centrifuged (5 min at 400 g) and bound antibody is detected with F(ab′)₂-Goat anti-Mouse IgG (H+L) Cross-Adsorbed Secondary Antibody, Alexa Fluor 488 (dilution 1/500) (Invitrogen by Thermofisher Scientific, Illkirch-Graffenstaden, France) or with F(ab′)₂-Goat anti-Human IgG Fc Secondary Antibody, PE (Invitrogen by Thermofisher Scientific, Illkirch-Graffenstaden, France) (dilution 1/1000) at 4° C. for 30 min. Detection reagent is washed away and cells are centrifuged (5 min at 400 g) and resuspended in 30 μL PBS. Bound detection antibody is quantified on a MacsQuant16 (Miltenyi, Gladbach, Germany) (B1 or B2 channel, 5000 events per acquisition). During the experiment, the respective isotype mAb controls (mouse IgG1, mouse IgG2a, mouse IgG2b, mouse IgG3 or human IgG1) (Biolegend, Amsterdam, The Netherlands) are included to exclude any unspecific binding events.
EC50 values were determined via nonlinear fit “log(agonist)vs.response−Variable slope (four parameters)” function of Graphpad prism. EC50 values were not constantly determined in the same experiments.

[8] = molecular target: pm5, modified CCR8 related peptide (human, sulfated tyrosines at Y15 and Y17); assay: ELISA on coated CCR8 peptide (500 ng/mL), OD [cont.]
Chain of pm5, modified CCR8 related peptide (human, sulfated tyrosines at Y15 and Y17) (peptide, as listed by the source): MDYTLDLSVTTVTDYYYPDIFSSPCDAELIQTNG
How it was run: (§1)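 Peptides coated at 500 ng/mL in carbonate/bicarbonate buffer; anti-CCR8 mAbs applied at 1 μg/mL and a 1/10 dilution for 90 min at room temperature. After washing, TMB substrate was developed for 15 min and OD read as a measure of mAb reactivity.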

[9] = molecular target: pm6, modified CCR8 related peptide (human, sulfated tyrosines at Y16 and Y17); assay: as above
Chain of pm6, modified CCR8 related peptide (human, sulfated tyrosines at Y16 and Y17) (peptide, as listed by the source): as above
How it was run: as §1

[10] = molecular target: pm8, modified CCR8 related peptide (human, sulfated tyrosines at Y15, Y16 and Y17); assay: as above
Chain of pm8, modified CCR8 related peptide (human, sulfated tyrosines at Y15, Y16 and Y17) (peptide, as listed by the source): as above
How it was run: as §1

[11] = molecular target: T3, pwt1, unmodified CCR8 related peptide (human, none (non-sulfated Y15, Y16, Y17)); assay: as above
T3 construct: First 34 amino acids of human CCR8, synthetic; also called unmodified peptide
T3 sequence (peptide, as listed by the source): as above
How it was run: as §1

[12] = molecular target: pm1, modified CCR8 related peptide (human, sulfated tyrosine at Y15); assay: as above
Chain of pm1, modified CCR8 related peptide (human, sulfated tyrosine at Y15) (peptide, as listed by the source): as above
How it was run: as §1

[13] = molecular target: pm2, modified CCR8 related peptide (human, sulfated tyrosine at Y16); assay: as above
Chain of pm2, modified CCR8 related peptide (human, sulfated tyrosine at Y16) (peptide, as listed by the source): as above
How it was run: as §1

[14] = molecular target: pm3, modified CCR8 related peptide (human, sulfated tyrosine at Y17); assay: as above
Chain of pm3, modified CCR8 related peptide (human, sulfated tyrosine at Y17) (peptide, as listed by the source): as above
How it was run: as §1

[15] = molecular target: pm4, modified CCR8 related peptide (human, sulfated tyrosines at Y15 and Y16); assay: as above
Chain of pm4, modified CCR8 related peptide (human, sulfated tyrosines at Y15 and Y16) (peptide, as listed by the source): as above
How it was run: as §1

[16] = molecular target: T4, hCCR8 SNAP-tag (human, UniProt P51685 1-355, SNAP-tag labelled with Lumi4-Terbium); assay: HTRF Tag-lite, inhibition of hCCL1-AF647 binding to SNAP-tag hCCR8 on HEK-293
T4 construct: also called human CCR8 engineered with a SNAP-tag at the N-terminus; not shown: SNAP-tag at the N-terminus
Protocol: The inhibition of CCL1 binding to hCCR8 was evaluated with the Tag-Lite® technology from Cisbio (Revvity). Human CCR8 is engineered with a SNAP-tag at the N-terminus of the GPCR. hCCR8 SNAP-tag is transiently transfected on HEK-293 cell line using FuGene® (Promega, Madison, WI, USA). 48 hours after transfection, cells are labeled with the substrate Lumi4-Terbium® (Cisbio, Codolet, France) which covalently reacts with the SNAP-tag, for 1 h at 37° C. […] The Kd is previously obtained in a saturation binding assay on the same cells. […] The plate is next incubated at 21° C. for 2 h. Detection of HTRF signal is performed on the multiplate reader EnVision (PerkinElmer, Waltham, MA, USA). The HTRF (665/620) ratio is calculated by EnVision software, the data exported are considered as the total binding. The specific binding is calculated then by subtracting the non-specific signal from the total binding. The Ki and IC₅₀are calculated using the “One site—Fit Ki” and “One site—FitlogIC50” from GraphPad Prism 9 (Graphpad Software, San Diego, CA, USA), respectively.

B1: Rituximab (antibody, V domains shown)
VH: QVQLQQPGAELVKPGASVKMSCKASGYTFTSYNMHWVKQTPGRGLEWIGAIYPGNGDTSYNQKFKGKATLTADKSSSTAYMQLSSLTSEDSAVYYCARSTYYGGDWYFNVWGAGTTVTVSA
VL: QIVLSQSPAILSASPGEKVTMTCRASSSVSYIHWFQQKPGSSPKPWIYATSNLASGVPVRFSGSGSGTSYSLTISRVEAEDAATYYCQQWTSNPPTFGGGTKLEIK
B1 was tested, and the “EC50 (read off the curve)” value [1] was about 0.1 µg/mL.

B2: humanized anti-CCR8 mAb 2-13 (antibody, human IgG1, kappa)
heavy: not shown
light: DIVMTQAAPSLSVTPGESASISCTSSKSLLHSNGNTYLYWFLQKPGQSPQLLIYRMSNLASGVPDRFSGSGSGTAFTLKISRVEAEDVGVYYCMQHREYPFTFGSGTKLEIKRTVAAPSVFIFPPSDEQLKSGTASVVCLLNNFYPREAKVQWKVDNALQSGNSQESVTEQDSKDSTYSLSSTLTLSKADYEKHKVYACEVTHQGLSSPVTKSFNRGEC
notes: Humanized, human IgG1 allotype G1m17 Fc with the terminal lysine deleted and the SDIE mutations
In the case of B2, the “IC50, CCL1 induced hCCR8 Gi2 signaling (BRET, HEK-293)” value [2] is reported as 0.035 µg/mL and 0.232 nM, the “hCCL1 (100 nM) residual response in %, Protocol #2, mAb 0.08 µg/mL ([…] nM)” value [3] is reported as 74% and the “hCCL1 (100 nM) residual response in %, Protocol #2, mAb 0.4 µg/mL (2.67 nM)” value [3] is reported as 54%. For the same binder, the “hCCL1 (100 nM) residual response in %, Protocol #2, mAb 10 µg/mL (66.7 nM)” value [3] was 40%, the “hCCL1 (100 nM) residual response in %, Protocol #3, mAb 0.05 µg/mL (0.33 nM)” value [3] was 89% and the “hCCL1 (100 nM) residual response in %, Protocol #3, mAb 0.5 µg/mL (3.33 nM)” value [3] was 63%. For the same binder, the “hCCL1 (100 nM) residual response in %, Protocol #3, mAb 5 µg/mL (33.3 nM)” value [3] was 51%, the “IC50, CCL1 induced hCCR8 Gi2 signaling (BRET) at pH 6.5” value [4] was 0.025 µg/ml and 0.165 nM and the “IC50, CCL1 induced hCCR8 Gi2 signaling (BRET) at pH 7.4” value [4] was 0.035 µg/ml and 0.232 nM. For the same binder, the “ADCC EC50, HUT78 targets, NK cells Donor 1” value [5] was 6.43 pM, the “ADCC EC50, HUT78 targets, NK cells Donor 2” value [5] was 2.16 pM and the “ADCP % Max of phagocytosis, HUT78 targets, monocyte-derived macrophages Donor 9” value [6] was 9.65%. The “% of labelled cells” value [7] was 32%, the binding result [8] was “binds” and the binding result [9] was “binds”. B2: binds [10]; binds [11]; binds [12]. B2: binds [13]; binds [14]; binds [15]. For the same binder, the IC50 [16] was 0.09 µg/mL and 0.6 nM and the Ki [16] was 0.05 µg/mL and 0.3 nM.

B3: afucosylated humanized anti-CCR8 mAb 2-16 (antibody, human IgG1, kappa)
heavy: not shown
light: DIVMTQAAPSLSVTPGESASISCTSSKSLLHSNGNTYLYWFLQKPGQSPQLLIYRMSNLASGVPDRFSGSGSGTAFTLKISRVEAEDVGVYYCMQHREYPFTFGSGTKLEIKRTVAAPSVFIFPPSDEQLKSGTASVVCLLNNFYPREAKVQWKVDNALQSGNSQESVTEQDSKDSTYSLSSTLTLSKADYEKHKVYACEVTHQGLSSPVTKSFNRGEC
modifications: afucosylated Fc glycan
notes: Same chains as 2-13, produced with 2-deoxy-2-fluoro-L-fucose (afucosylated)
For B3, the “ADCC EC50, HUT78 targets, NK cells Donor 1” value [5] was 2.24 pM, the “ADCC EC50, HUT78 targets, NK cells Donor 2” value [5] was 0.42 pM and the “ADCP % Max of phagocytosis, HUT78 targets, monocyte-derived macrophages Donor 9” value [6] was 8.29%. The “% of labelled cells” value [7] was 34%, the EC50 [7] was 400 pM and the “MFI fold change to isotype ctrl” value [7] was 2.5 fold.

Source: US20260167731A1 (DOMAIN THERAPEUTICS, published 2026)
